Experimental data as given in the supplement of paper PMC10065799, “High-throughput profiling of sequence recognition by tyrosine kinases and SH2 domains using bacterial peptide display” (eLife, 2023).

Columns and labels:
Fes = Fes (UniProt P07332); test: phosphorylation enrichment, bacterial display (enrichment ratio); higher = better substrate or ligand; peptides without Tyr show the background
Hck = Hck (UniProt P08631); test: as above
AncSZ = test: as above
FGFR1 = FGFR1 (UniProt P11362); test: as above
Chain of FGFR1 (P11362 whole entry, looked up): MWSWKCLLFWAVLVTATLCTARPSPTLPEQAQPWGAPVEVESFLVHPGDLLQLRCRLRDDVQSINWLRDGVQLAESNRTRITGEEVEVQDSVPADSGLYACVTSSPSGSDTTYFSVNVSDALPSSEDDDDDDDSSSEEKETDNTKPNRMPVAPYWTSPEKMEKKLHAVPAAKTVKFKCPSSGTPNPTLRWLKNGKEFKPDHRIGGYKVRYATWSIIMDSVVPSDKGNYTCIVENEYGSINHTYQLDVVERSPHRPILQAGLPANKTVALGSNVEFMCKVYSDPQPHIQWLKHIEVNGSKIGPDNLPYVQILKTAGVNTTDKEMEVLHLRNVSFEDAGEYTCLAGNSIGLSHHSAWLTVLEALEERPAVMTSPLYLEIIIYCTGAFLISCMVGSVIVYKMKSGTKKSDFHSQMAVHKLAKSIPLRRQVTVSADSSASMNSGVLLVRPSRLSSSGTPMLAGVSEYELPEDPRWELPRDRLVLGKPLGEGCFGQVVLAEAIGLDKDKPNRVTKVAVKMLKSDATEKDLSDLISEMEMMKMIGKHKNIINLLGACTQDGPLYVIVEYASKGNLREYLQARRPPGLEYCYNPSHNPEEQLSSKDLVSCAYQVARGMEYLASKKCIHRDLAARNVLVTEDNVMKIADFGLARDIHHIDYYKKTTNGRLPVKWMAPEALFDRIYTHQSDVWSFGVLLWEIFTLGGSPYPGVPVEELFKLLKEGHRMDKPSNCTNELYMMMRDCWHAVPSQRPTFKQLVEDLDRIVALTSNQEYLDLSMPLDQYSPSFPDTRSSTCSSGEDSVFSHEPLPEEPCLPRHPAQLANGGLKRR

MERTK = MERTK (UniProt Q12866); test: as above
Chain of MERTK (Q12866 whole entry, looked up): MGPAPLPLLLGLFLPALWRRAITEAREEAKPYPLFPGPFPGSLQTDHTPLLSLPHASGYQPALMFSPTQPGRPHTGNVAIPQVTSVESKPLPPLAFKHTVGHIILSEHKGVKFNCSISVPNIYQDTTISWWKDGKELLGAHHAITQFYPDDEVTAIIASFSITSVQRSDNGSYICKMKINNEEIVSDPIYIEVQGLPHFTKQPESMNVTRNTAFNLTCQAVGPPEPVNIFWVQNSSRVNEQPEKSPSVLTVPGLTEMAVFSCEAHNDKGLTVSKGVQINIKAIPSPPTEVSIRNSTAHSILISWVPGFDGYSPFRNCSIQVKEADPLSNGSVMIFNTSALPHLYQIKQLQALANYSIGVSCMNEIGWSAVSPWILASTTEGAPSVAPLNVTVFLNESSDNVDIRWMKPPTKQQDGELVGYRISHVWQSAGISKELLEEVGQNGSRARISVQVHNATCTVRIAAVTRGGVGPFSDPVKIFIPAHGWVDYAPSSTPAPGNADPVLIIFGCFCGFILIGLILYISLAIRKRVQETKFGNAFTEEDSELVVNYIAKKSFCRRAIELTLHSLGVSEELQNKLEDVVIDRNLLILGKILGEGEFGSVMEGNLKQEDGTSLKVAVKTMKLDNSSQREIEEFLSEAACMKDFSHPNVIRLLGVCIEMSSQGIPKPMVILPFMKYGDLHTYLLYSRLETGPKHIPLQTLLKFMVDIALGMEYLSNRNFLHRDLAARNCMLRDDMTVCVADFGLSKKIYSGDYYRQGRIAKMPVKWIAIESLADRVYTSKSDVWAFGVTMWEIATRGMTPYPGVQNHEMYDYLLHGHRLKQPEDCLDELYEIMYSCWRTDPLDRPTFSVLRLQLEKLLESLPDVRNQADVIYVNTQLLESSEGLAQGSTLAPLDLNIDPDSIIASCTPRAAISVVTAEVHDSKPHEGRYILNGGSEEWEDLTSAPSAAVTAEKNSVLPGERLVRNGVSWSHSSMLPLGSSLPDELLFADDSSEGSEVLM

c-Src = test: as above
Fer (mouse) = test: as above
EPHB1 = EPHB1 (UniProt P54762); test: as above
Chain of EPHB1 (P54762 whole entry, looked up): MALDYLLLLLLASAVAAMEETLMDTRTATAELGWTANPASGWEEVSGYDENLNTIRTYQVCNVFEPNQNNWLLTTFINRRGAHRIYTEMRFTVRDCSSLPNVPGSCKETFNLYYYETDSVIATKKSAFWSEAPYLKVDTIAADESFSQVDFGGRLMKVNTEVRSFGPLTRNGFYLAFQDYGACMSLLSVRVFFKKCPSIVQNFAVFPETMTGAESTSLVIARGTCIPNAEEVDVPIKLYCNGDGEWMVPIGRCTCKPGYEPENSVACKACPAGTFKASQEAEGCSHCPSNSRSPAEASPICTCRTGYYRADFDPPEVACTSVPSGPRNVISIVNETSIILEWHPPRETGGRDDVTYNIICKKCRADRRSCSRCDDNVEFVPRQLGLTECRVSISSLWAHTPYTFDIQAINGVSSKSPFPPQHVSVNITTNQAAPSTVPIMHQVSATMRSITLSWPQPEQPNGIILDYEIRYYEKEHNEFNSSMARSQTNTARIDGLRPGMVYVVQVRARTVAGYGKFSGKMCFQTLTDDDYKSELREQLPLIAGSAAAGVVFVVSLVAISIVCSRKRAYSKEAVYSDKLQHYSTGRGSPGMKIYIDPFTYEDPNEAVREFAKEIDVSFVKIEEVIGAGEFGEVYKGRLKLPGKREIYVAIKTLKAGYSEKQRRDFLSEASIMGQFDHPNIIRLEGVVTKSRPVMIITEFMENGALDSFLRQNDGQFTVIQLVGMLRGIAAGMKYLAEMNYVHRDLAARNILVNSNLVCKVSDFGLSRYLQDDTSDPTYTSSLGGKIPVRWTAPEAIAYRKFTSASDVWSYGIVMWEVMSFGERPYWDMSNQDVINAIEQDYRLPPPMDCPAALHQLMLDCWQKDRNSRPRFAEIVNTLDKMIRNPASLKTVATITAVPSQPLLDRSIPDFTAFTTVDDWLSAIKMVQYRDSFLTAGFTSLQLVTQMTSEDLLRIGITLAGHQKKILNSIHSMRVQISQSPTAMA

Jak2 = Jak2 (UniProt O60674); test: as above
c-Abl (mouse) = test: as above
FGFR3 = FGFR3 (UniProt P22607); test: as above
Chain of FGFR3 (P22607 whole entry, looked up): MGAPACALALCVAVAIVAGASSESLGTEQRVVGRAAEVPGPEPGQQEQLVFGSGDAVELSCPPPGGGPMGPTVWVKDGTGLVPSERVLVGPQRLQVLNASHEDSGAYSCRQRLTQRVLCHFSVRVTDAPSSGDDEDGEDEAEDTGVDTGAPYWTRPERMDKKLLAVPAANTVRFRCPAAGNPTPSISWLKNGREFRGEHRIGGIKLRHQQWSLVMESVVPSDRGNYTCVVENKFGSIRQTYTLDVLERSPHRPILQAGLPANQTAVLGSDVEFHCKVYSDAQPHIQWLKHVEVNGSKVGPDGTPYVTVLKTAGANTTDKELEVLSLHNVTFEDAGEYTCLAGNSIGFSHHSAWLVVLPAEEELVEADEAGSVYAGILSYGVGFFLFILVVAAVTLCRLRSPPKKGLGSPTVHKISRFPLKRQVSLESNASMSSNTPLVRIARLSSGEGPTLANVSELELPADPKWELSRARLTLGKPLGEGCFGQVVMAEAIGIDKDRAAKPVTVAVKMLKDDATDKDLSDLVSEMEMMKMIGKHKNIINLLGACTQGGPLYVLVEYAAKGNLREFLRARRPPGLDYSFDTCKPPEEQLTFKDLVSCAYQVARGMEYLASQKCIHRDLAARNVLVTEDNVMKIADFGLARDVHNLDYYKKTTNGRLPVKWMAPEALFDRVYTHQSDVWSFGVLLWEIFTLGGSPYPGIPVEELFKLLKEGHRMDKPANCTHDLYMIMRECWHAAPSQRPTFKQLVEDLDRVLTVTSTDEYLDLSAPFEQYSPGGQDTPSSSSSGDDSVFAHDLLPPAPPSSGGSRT

Fyn = Fyn (UniProt P06241); test: as above
EPHB2 = EPHB2 (UniProt P29323); test: as above
c-Src SH2 = test: SH2 binding enrichment of the phosphorylated peptide, bacterial display (enrichment ratio); higher = better substrate or ligand; peptides without Tyr show the background
SHP2-C SH2 = test: as above
Grb2 SH2 = Grb2 SH2 (UniProt P62993); test: as above
Chain of Grb2 SH2 (P62993 whole entry, looked up, the tested form may be a part): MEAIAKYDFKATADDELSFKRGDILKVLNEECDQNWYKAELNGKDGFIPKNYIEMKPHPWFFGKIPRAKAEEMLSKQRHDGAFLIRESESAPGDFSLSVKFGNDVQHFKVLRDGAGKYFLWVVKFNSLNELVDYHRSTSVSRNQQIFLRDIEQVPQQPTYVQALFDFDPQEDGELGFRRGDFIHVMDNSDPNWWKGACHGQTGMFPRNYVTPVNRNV
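Throughout, for SH2 binding enrichment of the phosphorylated peptide, bacterial display: peptide library displayed on the E. coli surface as eCPX fusions, selected cells deep-sequenced, score is each peptide's frequency after selection divided by its frequency in the input.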
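Throughout, for phosphorylation enrichment, bacterial display: 11-residue human phosphosite peptides and single-mutation variants displayed on the E. coli surface, counted by deep sequencing, each peptide's frequency after selection divided by its frequency in the unselected input library; frequency after pTyr selection over input frequency; kinase dosed for 20-30% of maximal phosphorylation in three min.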

Chain of Fes (P07332 whole entry, looked up): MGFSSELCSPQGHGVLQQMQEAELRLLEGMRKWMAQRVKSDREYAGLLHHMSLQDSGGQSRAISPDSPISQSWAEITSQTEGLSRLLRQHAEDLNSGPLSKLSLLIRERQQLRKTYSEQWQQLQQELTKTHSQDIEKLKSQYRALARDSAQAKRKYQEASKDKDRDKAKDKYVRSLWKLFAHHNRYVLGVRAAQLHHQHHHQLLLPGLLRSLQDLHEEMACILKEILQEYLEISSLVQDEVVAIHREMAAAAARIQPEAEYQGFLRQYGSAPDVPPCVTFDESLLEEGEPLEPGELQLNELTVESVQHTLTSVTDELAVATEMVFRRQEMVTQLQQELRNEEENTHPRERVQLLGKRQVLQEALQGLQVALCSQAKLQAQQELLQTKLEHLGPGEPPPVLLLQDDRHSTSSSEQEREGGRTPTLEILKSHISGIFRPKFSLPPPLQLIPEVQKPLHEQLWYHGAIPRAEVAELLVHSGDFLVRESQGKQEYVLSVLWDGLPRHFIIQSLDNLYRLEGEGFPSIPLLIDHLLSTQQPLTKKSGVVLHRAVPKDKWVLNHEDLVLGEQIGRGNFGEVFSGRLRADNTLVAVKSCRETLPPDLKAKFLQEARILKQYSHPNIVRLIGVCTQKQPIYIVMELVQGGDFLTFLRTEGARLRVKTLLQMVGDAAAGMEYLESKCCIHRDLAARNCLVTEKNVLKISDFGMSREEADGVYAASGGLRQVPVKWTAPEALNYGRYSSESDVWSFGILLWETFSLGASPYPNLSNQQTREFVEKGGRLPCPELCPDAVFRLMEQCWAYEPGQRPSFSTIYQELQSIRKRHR

| Sequence | phosphorylation enrichment (Fes) | phosphorylation enrichment (Hck) | phosphorylation enrichment (AncSZ) | phosphorylation enrichment (FGFR1) | phosphorylation enrichment (MERTK) | phosphorylation enrichment (c-Src) | phosphorylation enrichment (Fer (mouse)) | phosphorylation enrichment (EPHB1) | phosphorylation enrichment (Jak2) | phosphorylation enrichment (c-Abl (mouse)) | phosphorylation enrichment (FGFR3) | phosphorylation enrichment (Fyn) | phosphorylation enrichment (EPHB2) | SH2 binding enrichment (c-Src SH2) | SH2 binding enrichment (SHP2-C SH2) | SH2 binding enrichment (Grb2 SH2) |
| --- | --- | --- | --- | --- | --- | --- | --- | --- | --- | --- | --- | --- | --- | --- | --- | --- |
| PLDNLYAEPAV [PRPS1_Y146_V142L] | 1.66 | 4.65 | 2.72 | 0.719 | 8.88 | 2.06 | 4.92 | 9.6 | 1.83 | 10.6 | 1.09 | 2.13 | 12.9 | 0.486 | 0.655 | 0.995 |
| PLGKDYRKAEG [MAP1A_Y1909] | 0.941 | 0.945 | 0.68 | 0.691 | 0.589 | 0.456 | 0.655 | 0.512 | 0.378 | 0.505 | 0.787 | 0.72 | 0.532 | 0.408 | 0.647 | 0.884 |
| PLQNTYNYNVL [SLC4A1_Y553_K551N] | 0.894 | 0.6 | 0.634 | 0.37 | 0.737 | 0.745 | 0.233 | 0.939 | 0.67 | 1.51 | 0.545 | 0.65 | 1.6 | 2.12 | 0.865 | 0.81 |
| PMWHPYKVDVT [TP53TG5_Y255] | 1.27 | 0.5 | 1.09 | 0.561 | 0.398 | 2.06 | 0.611 | 0.753 | 0.643 | 0.433 | 0.872 | 1.3 | 0.54 | 0.436 | 0.487 | 0.525 |
| PNKAVYTKMMT [G6PD_Y401_E398K] | 0.562 | 0.437 | 0.65 | 0.661 | 0.332 | 0.601 | 0.656 | 0.467 | 0.59 | 0.426 | 0.423 | 0.422 | 0.519 | 3.63 | 4.8 | 0.959 |
| PPEFSYGLQTQ [SRA1_Y35_Q32E] | 1.09 | 0.416 | 0.724 | 0.568 | 0.428 | 0.486 | 0.453 | 0.565 | 0.997 | 0.661 | 0.772 | 0.446 | 0.802 | 0.601 | 0.601 | 1.06 |
| PPGRSYSPCDF [TNS1_Y793_Y796C_YF] | 1.16 | 0.639 | 1.01 | 0.716 | 0.676 | 0.649 | 0.689 | 0.895 | 0.679 | 0.902 | 0.816 | 0.431 | 0.858 | 0.696 | 0.839 | 1.25 |
| PQGVRYTFTID [DCX_Y103_I104T_YF] | 1.66 | 0.642 | 1.41 | 0.521 | 0.356 | 0.529 | 0.796 | 0.768 | 1.48 | 1.55 | 1.36 | 0.7 | 1.04 | 0.452 | 0.729 | 0.786 |
| PRARTYCFKQE [KLHDC9_Y175_S171R_YF] | 0.458 | 0.502 | 0.519 | 0.395 | 0.355 | 0.458 | 0.383 | 0.345 | 0.435 | 0.591 | 0.517 | 0.421 | 0.301 | 1.35 | 1.12 | 1.38 |
| PRDSGYSYETI [MAP1B_Y1921_S1917R] | 1.29 | 0.405 | 0.917 | 0.679 | 0.55 | 0.467 | 0.777 | 0.448 | 0.781 | 0.542 | 0.898 | 0.354 | 0.745 | 12.7 | 0.564 | 0.774 |
| PRNLIYFGEHP [TRPV6_Y201_C197R] | 1.51 | 0.932 | 1.23 | 0.423 | 0.448 | 1.08 | 0.619 | 0.631 | 1.57 | 0.92 | 0.912 | 0.738 | 0.925 | 0.401 | 0.598 | 0.531 |
| PRPAGYPSMVS [CACNA1C_Y1832_T1835M] | 0.668 | 0.456 | 0.678 | 0.386 | 0.365 | 0.416 | 0.412 | 0.393 | 0.475 | 0.435 | 0.364 | 0.48 | 0.561 | 0.312 | 0.507 | 0.755 |
| PRRRFYVVACD [RNASE3_Y134_G130R] | 0.667 | 0.705 | 0.597 | 0.614 | 0.73 | 0.545 | 0.433 | 0.543 | 0.733 | 0.715 | 0.656 | 0.759 | 0.701 | 0.47 | 0.486 | 0.592 |
| PSELYYSKIGP [SMG1_Y2254] | 1.68 | 18.8 | 2.07 | 12.9 | 23.8 | 10.8 | 16.3 | 5.13 | 4.02 | 3.88 | 8.9 | 8.78 | 2.91 | 5.62 | 2.26 | 0.666 |
| PTDGVYVMPTV [MYO7A_Y1668_S1666G] | 1.21 | 6.35 | 6.14 | 2.95 | 11.7 | 7.86 | 0.789 | 2.01 | 1.3 | 4.76 | 2.52 | 14 | 1.48 | 0.848 | 0.943 | 0.885 |
| PTEAQYRFIFM [PTPN11_Y511_Q506P_YF] | 1.81 | 1.07 | 1.6 | 1.9 | 0.702 | 0.477 | 1.06 | 0.876 | 1.44 | 1.32 | 1.21 | 0.939 | 0.767 | 0.317 | 0.593 | 0.585 |
